From article PMC6910828

Target: Cy3-labelled, prenylated Cdc42, wild type, GDP-bound
Test: membrane extraction (wash-off) assay on supported lipid bilayers, TIRF; as above, GDI titrated between 0 and 20 µM; Koff of the GTPase from the membrane plotted against GDI concentration and fitted with a hyperbolic function (Kd, Vmax); apparent affinities

- fold reduction of the extraction of Cdc42:GDP against WT GDI: < 2 fold
Substance: Xenopus laevis RhoGDI E158/9Q (natural protein)
